Test results as given in the supplement of paper PMC10567573.

B1: KRT13 (parent)
chain: TPGIDLTRVLAEMREQYEAMAERN
B2: PTPRD (parent)
chain: FICQATGDPRPKIVWNKKGKKVSN

Variants of: B1
Assay: protein stability index of a GFP-peptide fusion (GPS, HEK-293T) (PSI 1-6); higher = more stable
Conditions: c terminus: a fixed tail appended
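Further: lentivirally expressed fusions sorted by FACS into six bins by GFP to DsRed ratio, PSI derived from sequencing read proportions per bin multiplied by bin number.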

| Variant | protein stability index |
| --- | --- |
| TPGIDLTRVKAEMREQYEAMAERN [L10K] | 4.14 |
| TPYIDLTRVLAEMREQYEAMAERN [G3Y] | 2.34 |
| TPGIDLTRVLAEMREQYDAMAERN [E18D] | 4.27 |
| TPGIDLTRVLAEMREQYMAMAERN [E18M] | 3.72 |
| IPGIDLTRVLAEMREQYEAMAERN [T1I] | 4.36 |
| TPGIDLGRVLAEMREQYEAMAERN [T7G] | 3.36 |
| TPGIDLTRILAEMREQYEAMAERN [V9I] | 3.06 |
| TPGIDLTRVLAEMREQYEAMAEMN [R23M] | 3.27 |
| TPGIDLTRVLAEMREQYEAMAHRN [E22H] | 3.73 |
| TPGIDLTRVLAEMRERYEAMAERN [Q16R] | 4.84 |
| TPGIDLTRVLAEMRTQYEAMAERN [E15T] | 3.43 |
| TPGIDLTRVLAEMREQYCAMAERN [E18C] | 2.93 |
| TPGIDLTRVLAEMREQYEAMAEEN [R23E] | 4.9 |
| TPGHDLTRVLAEMREQYEAMAERN [I4H] | 4.85 |
| TPGIDLTRVLAEMREQYAAMAERN [E18A] | 4.23 |
| TPGIDLTPVLAEMREQYEAMAERN [R8P] | 3.61 |
| TPGIDLTRVLAEMREQYEAFAERN [M20F] | 3.42 |
| TPGIDLTRVLAEMRWQYEAMAERN [E15W] | 2.07 |

| Variant | protein stability index |
| --- | --- |
| TPGIDLTRVLAEMREQNEAMAERN [Y17N] | 4.56 |
| TPGIDLTRVLAEMREQYEAMAEAN [R23A] | 3.9 |
| TPGIDLTRVLAEMREQYEARAERN [M20R] | 4.68 |
| TPGIDLTRVLAECREQYEAMAERN [M13C] | 4.23 |
| TPGIDLTRVLAEMREQYEAMFERN [A21F] | 3.98 |
| TNGIDLTRVLAEMREQYEAMAERN [P2N] | 4.05 |
| TPGIDLTRVLAIMREQYEAMAERN [E12I] | 2.72 |
| TPGIDLTRVLARMREQYEAMAERN [E12R] | 1.05 |
| TPGIDLTRVLAEMREQYEATAERN [M20T] | 4.25 |
| TPGIDLTRVLFEMREQYEAMAERN [A11F] | 3.7 |
| TPVIDLTRVLAEMREQYEAMAERN [G3V] | 2.11 |
| TPGIDLTRVLAEMREQKEAMAERN [Y17K] | 5.5 |
| TPGIDLTRVLAEMEEQYEAMAERN [R14E] | 4.28 |
| TPGIDLTRVWAEMREQYEAMAERN [L10W] | 4.09 |
| TIGIDLTRVLAEMREQYEAMAERN [P2I] | 2.54 |
| TPGIDLTRVLAEMREQYEAMPERN [A21P] | 4.93 |
| TPGIDLTRVLAEMREQYYAMAERN [E18Y] | 3.87 |

Variants of: B2
Assay: as above
Conditions: c terminus: a fixed tail appended

| Variant | protein stability index |
| --- | --- |
| AICQATGDPRPKIVWNKKGKKVSN [F1A] | 3.28 |
| CICQATGDPRPKIVWNKKGKKVSN [F1C] | 3.2 |
| DICQATGDPRPKIVWNKKGKKVSN [F1D] | 3.65 |
| EICQATGDPRPKIVWNKKGKKVSN [F1E] | 3.2 |
| GICQATGDPRPKIVWNKKGKKVSN [F1G] | 4.53 |
| HICQATGDPRPKIVWNKKGKKVSN [F1H] | 3.71 |
| IICQATGDPRPKIVWNKKGKKVSN [F1I] | 2.35 |
| KICQATGDPRPKIVWNKKGKKVSN [F1K] | 3.12 |
| LICQATGDPRPKIVWNKKGKKVSN [F1L] | 2.15 |
| MICQATGDPRPKIVWNKKGKKVSN [F1M] | 2.92 |
| NICQATGDPRPKIVWNKKGKKVSN [F1N] | 3.89 |
| PICQATGDPRPKIVWNKKGKKVSN [F1P] | 3.76 |
| QICQATGDPRPKIVWNKKGKKVSN [F1Q] | 3.42 |
| RICQATGDPRPKIVWNKKGKKVSN [F1R] | 3.66 |
| SICQATGDPRPKIVWNKKGKKVSN [F1S] | 3.3 |
| TICQATGDPRPKIVWNKKGKKVSN [F1T] | 3.08 |
| VICQATGDPRPKIVWNKKGKKVSN [F1V] | 2.75 |
| WICQATGDPRPKIVWNKKGKKVSN [F1W] | 2.23 |
| YICQATGDPRPKIVWNKKGKKVSN [F1Y] | 2.26 |
| FACQATGDPRPKIVWNKKGKKVSN [I2A] | 2.67 |

| Variant | protein stability index |
| --- | --- |
| FCCQATGDPRPKIVWNKKGKKVSN [I2C] | 2.29 |
| FDCQATGDPRPKIVWNKKGKKVSN [I2D] | 4.73 |
| FECQATGDPRPKIVWNKKGKKVSN [I2E] | 4.52 |
| FFCQATGDPRPKIVWNKKGKKVSN [I2F] | 3.85 |
| FGCQATGDPRPKIVWNKKGKKVSN [I2G] | 4.1 |
| FHCQATGDPRPKIVWNKKGKKVSN [I2H] | 1.55 |
| FKCQATGDPRPKIVWNKKGKKVSN [I2K] | 3.47 |
| FLCQATGDPRPKIVWNKKGKKVSN [I2L] | 2.59 |
| FMCQATGDPRPKIVWNKKGKKVSN [I2M] | 3.44 |
| FNCQATGDPRPKIVWNKKGKKVSN [I2N] | 4.27 |
| FPCQATGDPRPKIVWNKKGKKVSN [I2P] | 3.89 |
| FQCQATGDPRPKIVWNKKGKKVSN [I2Q] | 2.83 |
| FRCQATGDPRPKIVWNKKGKKVSN [I2R] | 3.57 |
| FSCQATGDPRPKIVWNKKGKKVSN [I2S] | 3.75 |
| FTCQATGDPRPKIVWNKKGKKVSN [I2T] | 3.58 |
| FVCQATGDPRPKIVWNKKGKKVSN [I2V] | 2.34 |
| FWCQATGDPRPKIVWNKKGKKVSN [I2W] | 2.95 |
| FYCQATGDPRPKIVWNKKGKKVSN [I2Y] | 3.01 |
| FIAQATGDPRPKIVWNKKGKKVSN [C3A] | 2.55 |
| FIDQATGDPRPKIVWNKKGKKVSN [C3D] | 2.85 |

| Variant | protein stability index |
| --- | --- |
| FIEQATGDPRPKIVWNKKGKKVSN [C3E] | 3.04 |
| FIFQATGDPRPKIVWNKKGKKVSN [C3F] | 1.92 |
| FIGQATGDPRPKIVWNKKGKKVSN [C3G] | 2.2 |
| FIHQATGDPRPKIVWNKKGKKVSN [C3H] | 2.56 |
| FIIQATGDPRPKIVWNKKGKKVSN [C3I] | 2.38 |
| FIKQATGDPRPKIVWNKKGKKVSN [C3K] | 2.57 |
| FILQATGDPRPKIVWNKKGKKVSN [C3L] | 1.86 |
| FIMQATGDPRPKIVWNKKGKKVSN [C3M] | 1.75 |
| FINQATGDPRPKIVWNKKGKKVSN [C3N] | 1.88 |
| FIPQATGDPRPKIVWNKKGKKVSN [C3P] | 3.54 |
| FIQQATGDPRPKIVWNKKGKKVSN [C3Q] | 2.05 |
| FIRQATGDPRPKIVWNKKGKKVSN [C3R] | 2.06 |
| FISQATGDPRPKIVWNKKGKKVSN [C3S] | 1.92 |
| FITQATGDPRPKIVWNKKGKKVSN [C3T] | 1.98 |
| FIVQATGDPRPKIVWNKKGKKVSN [C3V] | 2.31 |
| FIWQATGDPRPKIVWNKKGKKVSN [C3W] | 1.97 |
| FIYQATGDPRPKIVWNKKGKKVSN [C3Y] | 1.15 |
| FICAATGDPRPKIVWNKKGKKVSN [Q4A] | 1.61 |
| FICCATGDPRPKIVWNKKGKKVSN [Q4C] | 1.8 |
